T1: AfFur H93A (Acidithiobacillus ferrooxidans ATCC …, UniProt B7J425 1-158, H93A)
T1 sequence: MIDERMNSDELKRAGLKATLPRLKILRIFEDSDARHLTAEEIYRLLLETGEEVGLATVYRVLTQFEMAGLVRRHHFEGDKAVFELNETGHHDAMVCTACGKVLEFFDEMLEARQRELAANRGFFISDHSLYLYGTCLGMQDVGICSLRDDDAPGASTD

T2: AfFur WT (Acidithiobacillus ferrooxidans ATCC …, UniProt B7J425 1-158)
T2 sequence: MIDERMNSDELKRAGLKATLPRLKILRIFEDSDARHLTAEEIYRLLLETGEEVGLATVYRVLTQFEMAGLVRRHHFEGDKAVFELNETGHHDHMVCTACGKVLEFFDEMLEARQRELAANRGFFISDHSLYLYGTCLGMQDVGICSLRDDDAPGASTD

T3: AfFur H91D (Acidithiobacillus ferrooxidans ATCC …, UniProt B7J425 1-158, H91D)
T3 sequence: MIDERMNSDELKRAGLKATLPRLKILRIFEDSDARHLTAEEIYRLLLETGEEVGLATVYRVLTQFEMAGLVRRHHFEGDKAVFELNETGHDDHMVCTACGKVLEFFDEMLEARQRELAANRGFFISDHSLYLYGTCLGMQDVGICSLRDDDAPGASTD

T4: AfFur E104K (Acidithiobacillus ferrooxidans ATCC …, UniProt B7J425 1-158, E104K)
T4 sequence: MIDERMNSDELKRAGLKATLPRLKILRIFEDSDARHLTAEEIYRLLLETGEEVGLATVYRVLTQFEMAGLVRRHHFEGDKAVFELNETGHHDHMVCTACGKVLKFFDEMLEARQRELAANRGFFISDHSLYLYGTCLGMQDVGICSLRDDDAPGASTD

T5: AfFur C99A (Acidithiobacillus ferrooxidans ATCC …, UniProt B7J425 1-158, C99A)
T5 sequence: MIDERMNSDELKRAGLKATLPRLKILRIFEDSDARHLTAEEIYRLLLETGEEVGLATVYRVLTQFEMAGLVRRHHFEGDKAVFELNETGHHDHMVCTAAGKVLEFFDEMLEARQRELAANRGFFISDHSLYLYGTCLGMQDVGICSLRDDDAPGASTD

T6: AfFur C136A (Acidithiobacillus ferrooxidans ATCC …, UniProt B7J425 1-158, C136A)
T6 sequence: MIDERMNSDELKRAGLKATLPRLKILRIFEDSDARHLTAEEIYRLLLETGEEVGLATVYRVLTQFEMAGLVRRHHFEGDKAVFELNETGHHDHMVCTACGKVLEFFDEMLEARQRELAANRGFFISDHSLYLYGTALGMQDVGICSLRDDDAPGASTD

T7: AfFur C145A (Acidithiobacillus ferrooxidans ATCC …, UniProt B7J425 1-158, C145A)
T7 sequence: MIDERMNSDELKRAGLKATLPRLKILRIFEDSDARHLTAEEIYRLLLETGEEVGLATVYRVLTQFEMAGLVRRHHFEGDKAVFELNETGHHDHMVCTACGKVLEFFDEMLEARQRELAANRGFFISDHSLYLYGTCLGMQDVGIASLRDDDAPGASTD

T8: AfFur C96A (Acidithiobacillus ferrooxidans ATCC …, UniProt B7J425 1-158, C96A)
T8 sequence: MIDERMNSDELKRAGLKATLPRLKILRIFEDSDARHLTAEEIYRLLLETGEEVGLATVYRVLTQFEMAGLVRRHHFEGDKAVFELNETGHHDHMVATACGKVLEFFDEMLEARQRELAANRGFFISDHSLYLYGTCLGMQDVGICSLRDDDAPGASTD

T9: AfFur C145W (Acidithiobacillus ferrooxidans ATCC …, UniProt B7J425 1-158, C145W)
T9 sequence: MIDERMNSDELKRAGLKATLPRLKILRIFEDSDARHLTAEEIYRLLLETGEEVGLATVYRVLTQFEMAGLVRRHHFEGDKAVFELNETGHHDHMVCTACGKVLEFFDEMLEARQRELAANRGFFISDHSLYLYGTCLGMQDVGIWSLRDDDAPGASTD

T10: AfFur E84A (Acidithiobacillus ferrooxidans ATCC …, UniProt B7J425 1-158, E84A)
T10 sequence: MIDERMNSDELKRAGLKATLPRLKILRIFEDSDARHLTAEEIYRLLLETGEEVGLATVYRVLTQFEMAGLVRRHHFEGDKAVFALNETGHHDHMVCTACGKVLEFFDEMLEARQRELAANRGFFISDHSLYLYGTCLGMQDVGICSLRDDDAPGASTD

T11: AfFur H91K (Acidithiobacillus ferrooxidans ATCC …, UniProt B7J425 1-158, H91K)
T11 sequence: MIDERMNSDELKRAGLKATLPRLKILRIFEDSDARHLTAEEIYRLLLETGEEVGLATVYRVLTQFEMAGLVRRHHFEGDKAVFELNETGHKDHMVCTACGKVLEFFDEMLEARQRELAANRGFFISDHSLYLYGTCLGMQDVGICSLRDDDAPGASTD


What was measured:
[1] = biological target: Ferric Uptake Regulator from Acidithiobacillus ferrooxidans (AfFur), wild type, N-terminal His-tag (Acidithiobacillus ferrooxidans ATCC 23270); experiment: SEC; size-exclusion chromatography of AfFur, data not shown; dimer in solution
[2] = biological target: Ferric Uptake Regulator from Acidithiobacillus ferrooxidans (AfFur), wild type, N-terminal His-tag (Acidithiobacillus ferrooxidans ATCC 23270); experiment: SDS-PAGE and western blot; purified His-tagged AfFur on SDS-PAGE (Coomassie, Figure S2) and western blot with anti-6x His tag antibody (Figure S3); dimer
AfFur H93A = biological target: T1, AfFur H93A; experiment: EMSA; 0.1 mM Mn2+, 5 mM Mg2+; 10 mM Tris pH 7.5, 50 mM KCl, 5 mM MgCl2, 0.1 mM MnCl2, 1 mM DTT, 2.5% glycerol, 50 ng/uL poly(dI-dC), 0.05% NP-40; 20 fmol probe, 2.9-3.9 ug protein in 20 uL; settings: protein: recombinant; tags: N-terminal His6 (pLATE51); chain copies: 2; label: 5' biotin
AfFur WT = biological target: T2, AfFur WT; experiment: EMSA; holo, 0.1 mM Mn2+, 5 mM Mg2+; shift lost with 200-fold cold probe; 10 mM Tris pH 7.5, 50 mM KCl, 5 mM MgCl2, 0.1 mM MnCl2, 1 mM DTT, 2.5% glycerol, 50 ng/uL poly(dI-dC), 0.05% NP-40; 20 fmol probe, 2.9-3.9 ug protein in 20 uL; settings: protein: recombinant; tags: N-terminal His6 (pLATE51); chain copies: 2; label: 5' biotin
AfFur H91D = biological target: T3, AfFur H91D; experiment: EMSA; 0.1 mM Mn2+, 5 mM Mg2+; lost with cold probe; 10 mM Tris pH 7.5, 50 mM KCl, 5 mM MgCl2, 0.1 mM MnCl2, 1 mM DTT, 2.5% glycerol, 50 ng/uL poly(dI-dC), 0.05% NP-40; 20 fmol probe, 2.9-3.9 ug protein in 20 uL; settings: protein: recombinant; tags: N-terminal His6 (pLATE51); chain copies: 2; label: 5' biotin
AfFur E104K = biological target: T4, AfFur E104K; experiment: as above; settings: protein: recombinant; tags: N-terminal His6 (pLATE51); chain copies: 2; label: 5' biotin
AfFur C99A = biological target: T5, AfFur C99A; experiment: EMSA; 0.1 mM Mn2+, 5 mM Mg2+; also no shift + EDTA; 10 mM Tris pH 7.5, 50 mM KCl, 5 mM MgCl2, 0.1 mM MnCl2, 1 mM DTT, 2.5% glycerol, 50 ng/uL poly(dI-dC), 0.05% NP-40; 20 fmol probe, 2.9-3.9 ug protein in 20 uL; settings: protein: recombinant; tags: N-terminal His6 (pLATE51); chain copies: 2; label: 5' biotin
AfFur C136A = biological target: T6, AfFur C136A; experiment: as above; settings: protein: recombinant; tags: N-terminal His6 (pLATE51); chain copies: 2; label: 5' biotin
AfFur C145A = biological target: T7, AfFur C145A; experiment: as above; settings: protein: recombinant; tags: N-terminal His6 (pLATE51); chain copies: 2; label: 5' biotin
AfFur C96A = biological target: T8, AfFur C96A; experiment: as above; settings: protein: recombinant; tags: N-terminal His6 (pLATE51); chain copies: 2; label: 5' biotin
AfFur C145W = biological target: T9, AfFur C145W; experiment: as above; settings: protein: recombinant; tags: N-terminal His6 (pLATE51); chain copies: 2; label: 5' biotin
AfFur E84A = biological target: T10, AfFur E84A; experiment: EMSA; 0.1 mM Mn2+, 5 mM Mg2+; shift persists with cold probe; 10 mM Tris pH 7.5, 50 mM KCl, 5 mM MgCl2, 0.1 mM MnCl2, 1 mM DTT, 2.5% glycerol, 50 ng/uL poly(dI-dC), 0.05% NP-40; 20 fmol probe, 2.9-3.9 ug protein in 20 uL; settings: protein: recombinant; tags: N-terminal His6 (pLATE51); chain copies: 2; label: 5' biotin
AfFur H91K = biological target: T11, AfFur H91K; experiment: as above; settings: protein: recombinant; tags: N-terminal His6 (pLATE51); chain copies: 2; label: 5' biotin

| stoichiometry N [1] | stoichiometry N [2] | Molecule | binding result (AfFur H93A) | binding result (AfFur WT) | binding result (AfFur H91D) | binding result (AfFur E104K) | binding result (AfFur C99A) | binding result (AfFur C136A) | binding result (AfFur C145A) | binding result (AfFur C96A) | binding result (AfFur C145W) | binding result (AfFur E84A) | binding result (AfFur H91K) |
| --- | --- | --- | --- | --- | --- | --- | --- | --- | --- | --- | --- | --- | --- |
| 2 | 2 | Ferric Uptake Regulator from Acidithiobacillus ferrooxidans (AfFur), wild type, N-terminal His-tag (natural protein) | – | – | – | – | – | – | – | – | – | – | – |
| – | – | Bio-MntH-Fur-box (dsDNA) DNA 1: GGCATCAATAAACGGGAATCATTCTCGTCTACC DNA 2: GGTAGACGAGAATGATTCCCGTTTATTGATGCC | no binding | binds | binds | binds | no binding | no binding | no binding | no binding | no binding | binds | binds |

— publication PMC11910503, “Novel metal sites revealed by spectroscopic and structural characterization of the ferric uptake regulator from Acidithiobacillus ferrooxidans”
